Read-outs that look alike come from different tables or passages of the source.
T1: ICOS (UniProt Q9Y6W8 21-140, limits assumed)
T1 construct: bought
T1 sequence (looked up): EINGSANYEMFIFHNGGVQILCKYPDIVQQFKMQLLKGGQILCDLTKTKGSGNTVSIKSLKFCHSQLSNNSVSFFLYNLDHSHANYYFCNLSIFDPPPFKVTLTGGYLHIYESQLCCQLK

T2: murine PD-1 protein (murine, UniProt Q02242 25-167, limits assumed)
T2 construct: bought
T2 sequence (looked up): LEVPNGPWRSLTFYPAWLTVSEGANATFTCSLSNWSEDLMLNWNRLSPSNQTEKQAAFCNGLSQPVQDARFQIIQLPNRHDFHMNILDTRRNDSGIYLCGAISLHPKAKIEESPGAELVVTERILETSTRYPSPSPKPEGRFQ


Experiments:
[1] = target: PD-1 on GS-J2/PD1 effector cells (UniProt Q15116 25-288, limits assumed); assay: cell-based or functional assay
human PD-1.Fc = target: T3, human PD-1.Fc (human, UniProt Q15116 25-170, limits assumed); assay: SPR, antibody captured on protein A, PD-1.Fc in flow
T3 construct: also called PD-1; Fc protein; PD-1.hFc; not shown: human IgG Fc fragment

ICOS = target: T1, ICOS; assay: ELISA on coated protein, anti-human Fc HRP
murine PD-1 protein = target: T2, murine PD-1 protein; assay: ELISA on coated protein, anti-human Fc HRP
CTLA-4 = target: T4, CTLA-4 (UniProt P16410 36-161, limits assumed); assay: ELISA on coated protein, anti-human Fc HRP
T4 construct: bought

CD28 = target: T5, CD28 (UniProt P10747 19-152); assay: ELISA on coated protein, anti-human Fc HRP
T5 construct: bought

PD-1.His = target: T6, PD-1.His (UniProt Q15116 25-170, limits assumed); assay: SPR, antibody captured on protein A, PD-1.His in flow
T6 construct: not shown: His tag

PD-1 [2] = target: T7, PD-1 (UniProt Q15116 25-170, limits assumed); assay: SPR; set-up and antigen form not restated
T7 construct: also called PD-1 protein

PD-1 [3] = target: T7, PD-1; assay: SPR; set-up and antigen form not restated; remark: listed apart in the source
PD-1 [4] = target: T7, PD-1; assay: SPR; set-up and antigen form not restated; remark: listed apart in the source

T6 sequence (Q15116 25-170 limits assumed): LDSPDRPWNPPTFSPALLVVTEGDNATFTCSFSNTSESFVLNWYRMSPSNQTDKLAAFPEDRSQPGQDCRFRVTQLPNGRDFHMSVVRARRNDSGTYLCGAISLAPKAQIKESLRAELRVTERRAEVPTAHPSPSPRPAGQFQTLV
T3 sequence (Q15116 25-170 limits assumed): as above
T7 sequence (Q15116 25-170 limits assumed): as above
T4 sequence (P16410 36-161 limits assumed): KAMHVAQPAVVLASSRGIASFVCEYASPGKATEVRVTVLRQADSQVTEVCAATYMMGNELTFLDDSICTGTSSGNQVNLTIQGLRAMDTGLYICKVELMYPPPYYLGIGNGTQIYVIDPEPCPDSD
Sequence of PD-1 on GS-J2/PD1 effector cells (Q15116 25-288 limits assumed): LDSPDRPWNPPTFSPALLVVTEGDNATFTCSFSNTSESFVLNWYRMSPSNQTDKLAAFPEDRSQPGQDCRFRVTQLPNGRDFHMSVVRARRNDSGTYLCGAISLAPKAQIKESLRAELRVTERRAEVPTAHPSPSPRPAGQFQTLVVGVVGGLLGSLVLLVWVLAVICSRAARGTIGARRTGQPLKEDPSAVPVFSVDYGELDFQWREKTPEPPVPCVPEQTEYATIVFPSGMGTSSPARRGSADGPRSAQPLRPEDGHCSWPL

Binder | Reporter Gene Assay EC50 (luciferase) [1] [nM] | Kd (human PD-1.Fc) [nM] | koff (human PD-1.Fc) [s⁻¹] | kon (human PD-1.Fc) [M⁻¹ s⁻¹] | binding result (ICOS) | binding result (murine PD-1 protein) | binding result (CTLA-4) | binding result (CD28) | Kd (PD-1.His) [nM] | koff (PD-1.His) [s⁻¹] | kon (PD-1.His) [M⁻¹ s⁻¹] | Kd (PD-1 [2]) [nM] | koff (PD-1 [2]) [s⁻¹] | kon (PD-1 [2]) [M⁻¹ s⁻¹] | Kd (PD-1 [3]) [nM] | koff (PD-1 [3]) [s⁻¹] | kon (PD-1 [3]) [M⁻¹ s⁻¹] | fold increase in affinity compared to NB194 (PD-1 [4]) [fold]
NB182 (Fc fusion, not shown: IgG4 constant region of vector pCDNA3.4-IgG4) heavy: QVQLVESGGGLVQAGGSLRLSCAASGDTSFISAAGWYRQAPGKERELVAAITNTGITYYPDSVKGRFTISRDNAKNTVYLQMNNLKPEDTAVYYCNAGAPPPGGLGYDESDYWGQGTQVTVSS | 16.3 | 8.67 | 6.4e-05 | 7380 | no binding | no binding (tested: 0.1µg) | no binding | no binding | 8.67 | 6.4e-05 | 7380 |  |  |  |  |  |  | 
NB194 (Fc fusion, not shown: IgG4 constant region of vector pCDNA3.4-IgG4) heavy: QVQLVETGGGLVRAGGSLRLSCTASGRPFSIYDMGWFRQAPDKERESVAVINLSRGDTYYADSVKGRFTISLDSAKNTVYLQMNSLKPEDTAVYSCGVDRRQYGLGIPPLADHWGQGTQVTVSS | 7 |  |  |  | no binding | no binding (tested: 0.1µg) | no binding | no binding | 0.494 | 0.000105 | 212000 | 0.531 | 7.36e-05 | 139000 |  |  |  | 

The remaining lines, values ahead:

Reporter Gene Assay EC50 (luciferase) [1] [nM] | Kd (human PD-1.Fc) [nM] | koff (human PD-1.Fc) [s⁻¹] | kon (human PD-1.Fc) [M⁻¹ s⁻¹] | binding result (ICOS) | binding result (murine PD-1 protein) | binding result (CTLA-4) | binding result (CD28) | Kd (PD-1.His) [nM] | koff (PD-1.His) [s⁻¹] | kon (PD-1.His) [M⁻¹ s⁻¹] | Kd (PD-1 [2]) [nM] | koff (PD-1 [2]) [s⁻¹] | kon (PD-1 [2]) [M⁻¹ s⁻¹] | Kd (PD-1 [3]) [nM] | koff (PD-1 [3]) [s⁻¹] | kon (PD-1 [3]) [M⁻¹ s⁻¹] | fold increase in affinity compared to NB194 (PD-1 [4]) [fold] | Binder
 |  |  |  |  |  |  |  |  |  |  | 0.118 | 2.86e-05 | 243000 | 0.151 | 4.37e-05 | 290000 | 5 | NB194-P29 (Fc fusion, not shown: IgG4 constant region of vector pCDNA3.4-IgG4) heavy: QLQLVESGGGSAQAGGSLTLSCTASGHSFSIYDMGWFRQAADKERESVAVINFGRGTTYYAESVKGRFTISLDSAKNTVYLQMNTLKPEDTAVYSCGIDRRQYGLGIPPLADHWGQGSQVTVSS
 |  |  |  |  |  |  |  |  |  |  |  |  |  | 0.406 | 5.03e-05 | 124000 |  | NB194-P29-z9 (Fc fusion, not shown: IgG4 constant region of vector pCDNA3.4-IgG4) heavy: QVQLVESGGGLVQPGGSLRLSCSASGFTFSIYDMGWFRQAADKERESVAVINFGRGTTYYAESVKGRFTISRDNAKNTVYLQMNSLRAEDTAVYSCGIDRRQYGLGIPPLADHWGQGSQVTVSS
 |  |  |  |  |  |  |  |  |  |  |  |  |  | 0.179 | 1.74e-05 | 96800 |  | NB194-P29-z10 (Fc fusion, not shown: IgG4 constant region of vector pCDNA3.4-IgG4) heavy: ELQLVESGGGLVQPGGSLRLSCAASGHSFSIYDMGWFRQAADKERESVAVINFGRGTTYYAESVKGRFTISRDNAKNTVYLQMNSLRAEDTAVYSCGIDRRQYGLGIPPLADHWGQGSQVTVSS

— patent publication EP4269437A1 (Zhejiang Nanomab Technology Center Co. Ltd., dated 2023)
